IntAct's records for PubMed 20952573

B1: Transcriptional regulatory protein RcsB (Escherichia coli (strain K12)), P0DMC7 (parent)
chain: MNNMNVIIADDHPIVLFGIRKSLEQIEWVNVVGEFEDSTALINNLPKLDAHVLITDLSMPGDKYGDGITLIKYIKRHFPSLSIIVLTMNNNPAILSAVLDLDIEGIVLKQGAPTDLPKALAALQKGKKFTPESVSRLLEKISAGGYGDKRLSPKESEVLRLFAEGFLVTEIAKKLNRSIKTISSQKKSAMMKLGVENDIALLNYLSSVTLSPADKD
partner: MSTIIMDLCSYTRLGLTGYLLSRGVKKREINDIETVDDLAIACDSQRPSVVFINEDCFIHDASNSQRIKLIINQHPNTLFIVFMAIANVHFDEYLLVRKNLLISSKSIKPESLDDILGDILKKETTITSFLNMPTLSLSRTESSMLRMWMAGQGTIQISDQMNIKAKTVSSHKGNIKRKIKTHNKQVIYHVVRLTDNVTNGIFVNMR

Variants of: B1
Details: with rcsa_ecoli rcsA

Row | effect of a mutation on the interaction | Variant
1 | decreasing interaction | MNNMNVIIADDHPIVLFGIRKSLEQIEWVNVVGEFEDSTALINNLPKLDAHVLITELSMPGDKYGDGITLIKYIKRHFPSLSIIVLTMNNNPAILSAVLDLDIEGIVLKQGAPTDLPKALAALQKGKKFTPESVSRLLEKISAGGYGDKRLSPKESEVLRLFAEGFLVTEIAKKLNRSIKTISSQKKSAMMKLGVENDIALLNYLSSVTLSPADKD [D56E]
